Consider 1 molecule from publication PMC7979852, “Alpha-1 antitrypsin inhibits TMPRSS2 protease activity and SARS-CoV-2 infection” (Nature Communications, 2021).

This test addresses T1, α1-antitrypsin (human, UniProt P01009 25-418).
T1 construct: alpha-1-antitrypsin (SERPINA1), human, plasma-derived, 52 kDa; The activity assays used Prolastin; also called α1AT; alpha-1 antitrypsin; source: bought: Merck (A9024) or GRIFOLS (Prolastin), purified from human plasma
As to the kind of experiment: SPR; TMPRSS2 amine-coupled (NHS/EDC) on an MUA-functionalised gold chip, Reichert SR7000; α1AT flowed at 0-20 µM in 10 mM HEPES, 150 mM NaCl, 0.05 % Tween-20, pH 7.5, 10 µl/min; equilibrium analysis. Conditions: both partners purified.

T1 sequence (P01009 25-418): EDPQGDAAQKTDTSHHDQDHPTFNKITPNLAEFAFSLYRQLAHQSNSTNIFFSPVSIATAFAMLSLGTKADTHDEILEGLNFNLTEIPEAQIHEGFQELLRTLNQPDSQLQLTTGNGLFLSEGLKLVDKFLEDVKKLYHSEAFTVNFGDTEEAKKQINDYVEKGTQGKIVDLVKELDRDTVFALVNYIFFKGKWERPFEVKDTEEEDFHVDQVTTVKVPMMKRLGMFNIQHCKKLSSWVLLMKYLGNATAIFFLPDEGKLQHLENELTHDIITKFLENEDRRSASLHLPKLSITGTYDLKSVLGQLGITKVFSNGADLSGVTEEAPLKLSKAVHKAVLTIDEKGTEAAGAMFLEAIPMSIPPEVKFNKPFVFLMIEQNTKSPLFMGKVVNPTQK

B1: recombinant TMPRSS2 (enzyme)
chain: not shown
notes: TMPRSS2, human, recombinant protein from Creative BioMart; No catalogue number or construct limits are printed; The cell-associated activity assay used TMPRSS2 expressed from Addgene 53887 in HEK293T cells; also called recombinant human TMPRSS2; transmembrane serine protease 2; source: bought: Creative BioMart
In turn, B1 had a Kd of 941 ± 297 nM.
